Test results: patent US9834755B2, “Compositions and methods for enhanced generation of hematopoietic stem/progenitor cells” (FRED HUTCHINSON CANCER RESEARCH CENTER, priority 2011, dated 2017)
Marks after values point to notes of the source that are not given here.

Assays:
[1] = test system: CD34+ cells; conditions: cited from earlier work
[2] = test system: CD34^+ CB HSPC; test: In vivo repopulation: cultured progeny of CD34+ CB HSPC transplanted into sublethally irradiated NSG mice; set-up: species or system human; conditions: secondary transplantation; differences not statistically significant
Procedure: Sublethally irradiated NOD-SCID IL-2Rγ-null mice (obtained from an established breeding colony at the Fred Hutchinson Cancer Research Center and approved for use by the Fred Hutchinson Cancer Research Center Institutional Animal Care and Use Committee) were infused with the progeny 10,000 starting CD34^+ cells per mouse via tail vein for cord blood experiments and the progeny of 20,000 for PBSC experiments. Repopulating ability of infused cells was assessed at 2-3 weeks post-transplant by bone marrow aspiration and at 13 weeks by bone marrow harvest.
Cells were cultured as described above and transplanted into sublethally irradiated immunodeficient NSG mice. Total human engraftment was defined as percent of human CD45^+ murine CD45.1^− cells based on bone marrow aspirate at 2 weeks post-transplant. Total myeloid engraftment was defined as percent human CD45^+CD33^+ murine CD45.1 cells on bone marrow aspirate at the same time point.
The progeny of 1×10^4 CD34^+ cells were then transplanted into 10 sublethally irradiated NSG mice per condition and engraftment was assessed by bone marrow aspirate at 2 weeks post-transplant. Total human engraftment was defined as percent of human CD45^+ murine CD45.1^− cells based on bone marrow aspirate at 2 weeks post-transplant. Total myeloid engraftment was defined as percent human CD45^+CD33^+ murine CD45.1^− cells on bone marrow aspirate at the same time point.
Transplants into NSG mice were performed as described above, with the cultured progeny of 1×10^4 CD34^+ cells. Cells were cultured in the presence of SR1, Delta1^Ext-IgG 2.5 μg/ml, or SR1 and Delta1^Ext-IgG (2.5 or 5 μg/ml) for 16 days.
Cells were cultured and transplanted as described above with the progeny of 1×10^4 CD34^+ cells transplanted per mouse. Total human, progenitor cell, myeloid, and lymphoid assessments were performed on bone marrow samples. Bone marrow aspirates were performed in the mice at 2 and 8 weeks post-transplant, and mice were sacrificed for bone marrow harvest at 13 weeks.

[3] = test system: CD34^+ CB HSPC; test: Ex vivo culture/expansion of CD34+ cord blood HSPC, cell counts and flow cytometric phenotype; assay type: cell-based, human
Procedure: Human cord blood samples for research were obtained from normal deliveries under Swedish Medical Center Institutional Review Board (Seattle) approval and after consent was obtained. The units were incubated in ammonium chloride red blood cell lysis buffer (consisting of 16.6 g NH4Cl, 2 g NaHCO3 and 74.4 mg EDTA per 2L of water) and resuspended in PBS with 2% human AB serum. Cells were incubated with CD34 Microbeads from Miltenyi Biotec and purified with an Automacs (Miltenyi Biotec). Cells were then frozen and thawed at time of use with PBS+1% FBS. Pools of 2 or more cord blood units were used for all experiments. Peripheral blood stem cells (PBSC) were obtained from a single donor and cryopreserved after CD34^+ cell selection.
Cells were cultured for 16 days in non-tissue-cultured-treated tissue culture flasks (25, 75, and 175-cm^2). Flasks were precoated with Delta1^ext-IgG (ligand preparation described in Delaney C. et al., 2005, Blood 106(8):2693-2699; and Varnum-Finney et al., 2000, J. Cell Science 113: 4313-4318), or human control IgG at 2.5 μg/ml and retronectin 5 μg/ml. Delta1^ext-IgG titrations were performed with concentrations of 0.5, 1.25 (for PBSC), 2.5, or 5 μg/ml. Flasks were incubated at 4° C. overnight or 37° C. for 2 hours and then washed with PBS and blocked with PBS 2% BSA for 30 minutes at 37° C. Cells were cultured in StemSpan serum-free expansion medium in the presence of 4 growth factors (IL6 (50 ng/ml), thrombopoietin (50 ng/ml), Flt-3 ligand (50 ng/ml), stem cell factor (50 ng/ml)) or 5 growth factors (4 growth factors plus IL3 (10 ng/ml)). SR-1 was made fresh and added to cells with all feedings at a concentration of 750 nM. Cultures in 25-cm^2 flasks were initiated with between 7×10^4 and 1.3×10^5 CD34^+ cells. Cultures in 75-cm^2 flasks were initiated with 3×10^5 CD34^+ cells. Cells were expanded to larger flasks when they exceeded cell density >1×10^6 cells/ml. Expansions typically occurred on day 7 and 10 of culture. Fresh media with cytokines was added very 3-4 days including the day prior to transplantation.
Immunofluorescence analysis was performed as described (see Ohishi et al., 2002, J Clin Invest. 110(8): 1165-1174), with FITC-labeled antibodies against human CD3, CD14, CD15, CD33, CD34, CD90, phycoerythryin (PE)-labeled antibodies against human CD19, CD56, CD90, CD133, Glycophorin A, CXCR4, PERCP-labeled antibodies against human CD14, CD34, APC-labeled antibodies against human CD45, CD90 and PECy7 labeled antibody against mouse CD45.1.
To determine whether Delta1^Ext-IgG and SR1 in combination were successfully able to expand CD34^+ CB HSPC ex vivo, CD34^+ cell generation, an HSPC enriched population routinely used in clinical application, was assessed at multiple time points in culture as compared to IgG control. CD34^+ CB progenitors were isolated by bead selection and Automacs and then cultured for 21 days in StemSpan serum-free expansion media supplemented with cytokines (TPO, SCF, IL-6, and Flt3-ligand at 50 ng/ml). […] Cells were cultured in the presence of SR1 (750 nM) and Delta1^Ext-IgG (0.5 or 2.5 μg/ml) or an IgG control. The engineered Notch ligand, Delta1^ext-IgG, contains the extracellular domain of Delta1 fused to the Fc portion of human IgG1 and is immobilized on the plastic surface of tissue culture flasks at varying densities. Immobilization of the Fc portion of human IgG1 served as a control construct. […] CD34^+ selected cells were seeded per flask from a pool of 2 CB units. […]

[4] = patients, vs concurrent cohort receiving double cord blood transplantation of non-manipulated units; cited from earlier work
[5] = test system: CD34^+ CB HSPC; test: SRC frequency by limiting dilution analysis in NSG mice; assay type: in vivo, human; conditions: Delta1^Ext-IgG 2.5 μg/ml alone, 5 μg/ml with SR1; for No. mice engrafted, Engraftment with ≧0.5% CD34^+ cells / No. mice engrafted, Engraftment with ≧1% CD33^+ cells / No. mice engrafted, Engraftment with ≧1% CD34^+ cells / No. mice engrafted, Engraftment with ≧5% CD33^+ cells: bone marrow aspirate at 2 weeks
From the text: Human cord blood (CB) samples for research were obtained from normal deliveries under Swedish Medical Center Institutional Review Board (Seattle) approval and after consent was obtained. CB samples were red blood cell depleted (Delaney et al., 2010, Nat Med 16(2):232-236), CD34 enriched using CD34^+ immunomagnetic particles (Miltenyi Biotec), purified with Automacs (Miltenyi Biotec), and cryopreserved. […] Cultures were initiated with 7×10^4 to 1.3×10^5 CD34^+ cells for 25-cm^2 flasks and with 3×10^5 CD34^+ cells for 75-cm^2 flasks. Immunofluorescence analysis was performed as described (Ohishi et al., 2002, J Clin Invest. 110(8):1165-1174) with labeled antibodies: FITC (human CD14, CD33, and Lineage); PE (human CD7, CD14, CD15, CD19, CD90, and CD123); PERCP (human CD34); APC (human CD10, CD45, IL3Ra); PECy7 (mouse CD45.1, human CD34); Alexa Fluor 700 (CD38); APC-eFluor 780 (CD45RA). Transplants were performed in sublethally irradiated (275 rad) NOD-SCID IL-2Rγ-null mice (NSG). In vivo engraftment was assessed by immunofluorescence analysis of human cell subsets (human CD45^+ murine CD45.1). On average, the total number of cells infused was 4.25×10^6/mouse for Delta1^ext-IgG alone, 1.88×10^7/mouse for SR1 alone, and 4.76×10^6/mouse for the combination. Statistical analyses were performed as indicated. For limiting dilution analysis, mice were injected with the cultured progeny of the number of CD34^+ cells indicated and bone marrow aspirates performed at 2 weeks. Two engraftment cut-offs were chosen based on percent engraftment observed in non-limiting transplantation studies. The frequency of SRCs was determined by the method of maximum likelihood with L-CALC software (StemCell Technologies) from the proportions of engrafted recipients (A, B).

[6] = limiting dilution analysis, maximum likelihood

CC(C)n1cnc2c(NCCc3ccc(O)cc3)nc(-c3cccc4cnccc34)nc21 [Example 145]
EC50 [1]: 5.4 µM

CC(C)n1cnc2c(NCCc3ccc(O)cc3)nc(-c3cnccc3C#N)nc21 [Example 143]
EC50 [1]: 4.3 µM

B1: Delta1^Ext-IgG: engineered Notch ligand: extracellular domain of Delta1 fused to the Fc portion of human IgG1, immobilized on tissue culture flasks (protein)
chain: QVWSSGVFELKLQEFVNKKGLLGNRNCCRGGAGPPPCACRTFFRVCLKHYQASVSPEPPCTYGSAVTPVLGVDSFSLPDGGGADSAFSNPIRFPFGFTWPGTFSLIIEALHTDSPDDLATENPERLISRLATQRHLTVGEEWSQDLHSSGRTDLKYSYRFVCDEHYYGEGCSVFCRPRDDAFGHFTCGERGEKVCNPGWKGPYCTEPICLPGCDEQHGFCDKPGECKCRVGWQGRYCDECIRYPGCLHGTCQQPWQCNCQEGWGGLFCNQDLNYCTHHKPCKNGATCTNTGQGSYTCSCRPGYTGATCELGIDECDPSPCKNGGSCTDLENSYSCTCPPGFYGKICELSAMTCADGPCFNGGRCSDSPDGGYSCRCPVGYSGFNCEKKIDYCSSSPCSNGAKCVDLGDAYLCRCQAGFSGRHCDDNVDDCASSPCANGGTCRDGVNDFSCTCPPGYTGRNCSAPVSRCEHAPCHNGATCHERGHRYVCECARGYGGPNCQFLLPELPPGPAVVDLTEKLEGQGGPFPW
modifications: left off: a dimerising Fc or GST
notes: engineered Notch ligand: extracellular domain of Delta1 fused to the Fc portion of human IgG1, immobilized on tissue culture flasks
human engraftment upon secondary transplantation, average CD45^+ [2]: 0.22%
CD34 expansion compared to IgG control ([3]; 7, 14, 18 and 21 days in culture, alone groups: data not shown): enhanced CD34 expansion
TNC generation with increasing densities of Delta1^Ext-IgG ([3]; day 16, SR1 with Delta1^Ext-IgG 0, 0.5, 2.5 or 5 μg/ml): decreased TNC generation in a stepwise manner
reduction in time to neutrophil engraftment [4]: 50%
No. mice engrafted, Engraftment with ≧0.5% CD34^+ cells ([5]; 1000 CD34^+ cells/mouse): 0/9
No. mice engrafted, Engraftment with ≧1% CD33^+ cells ([5]; 1000 CD34^+ cells/mouse): 2/9
No. mice engrafted, Engraftment with ≧1% CD34^+ cells ([5]; 1000 CD34^+ cells/mouse): 0/9
No. mice engrafted, Engraftment with ≧5% CD33^+ cells ([5]; 1000 CD34^+ cells/mouse): 0/9
No. mice engrafted, Engraftment with ≧0.5% CD34^+ cells ([5]; 4000 CD34^+ cells/mouse): 1/9
No. mice engrafted, Engraftment with ≧1% CD33^+ cells ([5]; 4000 CD34^+ cells/mouse): 9/9
No. mice engrafted, Engraftment with ≧1% CD34^+ cells ([5]; 4000 CD34^+ cells/mouse): 0/9
No. mice engrafted, Engraftment with ≧5% CD33^+ cells ([5]; 4000 CD34^+ cells/mouse): 3/9
No. mice engrafted, Engraftment with ≧0.5% CD34^+ cells ([5]; 20000 CD34^+ cells/mouse): 7/7
No. mice engrafted, Engraftment with ≧1% CD33^+ cells ([5]; 20000 CD34^+ cells/mouse): 7/7
No. mice engrafted, Engraftment with ≧1% CD34^+ cells ([5]; 20000 CD34^+ cells/mouse): 6/7
No. mice engrafted, Engraftment with ≧5% CD33^+ cells ([5]; 20000 CD34^+ cells/mouse): 6/7
CD33^+ SRC frequency per starting cell, Engraftment with ≧1% CD33^+ cells [5, 6]: 1/1719*
CD33^+ SRC frequency per starting cell, Engraftment with ≧5% CD33^+ cells [5, 6]: 1/11314^#
CD34^+ SRC frequency per starting cell, Engraftment with ≧0.5% CD34^+ cells [5, 6]: 1/11739*
CD34^+ SRC frequency per starting cell, Engraftment with ≧1% CD34^+ cells [5, 6]: 1/19121^#
